“And” between values parts separate entries of the source, which are not always exact repeats. Equal values may be shown once.
Legend:
Test in all cases: SEC; size-exclusion chromatography of the tag-free proteins after cleavage of the MBP fusion proteins with factor Xa; self-association (oligomeric state); SEC data not shown
[1] = molecular target: ΔN102/ΔC24-Y138E human phenylalanine hydroxylase catalytic domain (human) (UniProt P00439)
[2] = molecular target: Y138A full-length human phenylalanine hydroxylase (human) (UniProt P00439)
[3] = molecular target: Y138E full-length human phenylalanine hydroxylase (human) (UniProt P00439)
[4] = molecular target: ΔN102/ΔC24-Y138A human phenylalanine hydroxylase catalytic domain (human) (UniProt P00439)
[5] = molecular target: Y138K full-length human phenylalanine hydroxylase (human) (UniProt P00439)
[6] = molecular target: double truncated form ΔN102/ΔC24-hPAH (catalytic domain of human phenylalanine hydroxylase) (human) (UniProt P00439)
[7] = molecular target: wild-type human phenylalanine hydroxylase, full-length (wt-hPAH) (human) (UniProt P00439)
[8] = molecular target: Y138F full-length human phenylalanine hydroxylase (human) (UniProt P00439)
[9] = molecular target: ΔN102/ΔC24-Y138K human phenylalanine hydroxylase catalytic domain (human) (UniProt P00439)
[10] = molecular target: ΔN102/ΔC24-Y138F human phenylalanine hydroxylase catalytic domain (human) (UniProt P00439)

With “ΔN102/ΔC24-Y138E human phenylalanine hydroxylase catalytic domain (from UniProt P00439 103-428) (domain or fragment)” the stoichiometry N [1] was 2.
“Y138A full-length human phenylalanine hydroxylase (from UniProt P00439 1-452) (enzyme)” was tested, and the stoichiometry N [2] was 4 and 2.
In the case of “Y138E full-length human phenylalanine hydroxylase (from UniProt P00439 1-452) (enzyme)”, the stoichiometry N [3] is reported as 4 and 2.
Work on “ΔN102/ΔC24-Y138A human phenylalanine hydroxylase catalytic domain (from UniProt P00439 103-428) (domain or fragment)” yielded a stoichiometry N [4] of 2.
In the case of “Y138K full-length human phenylalanine hydroxylase (from UniProt P00439 1-452) (enzyme)”, the stoichiometry N [5] is reported as 2 and 4.
“double truncated form ΔN102/ΔC24-hPAH (catalytic domain of human phenylalanine hydroxylase) (from UniProt P00439 103-428) (domain or fragment)” showed a stoichiometry N [6] of 2.
For “wild-type human phenylalanine hydroxylase, full-length (wt-hPAH) (from UniProt P00439 1-452) (enzyme)”, the stoichiometry N [7] was 4 and 2.
With “Y138F full-length human phenylalanine hydroxylase (from UniProt P00439 1-452) (enzyme)” the stoichiometry N [8] was 4 and 2.
Substance “ΔN102/ΔC24-Y138K human phenylalanine hydroxylase catalytic domain (from UniProt P00439 103-428) (domain or fragment)” has a stoichiometry N [9] of 2.
With “ΔN102/ΔC24-Y138F human phenylalanine hydroxylase catalytic domain (from UniProt P00439 103-428) (domain or fragment)” the stoichiometry N [10] was 2.

— publication PMC5494296
